Experimental data from the supplement of paper PMC10724198.
± gives the standard deviation of the averaged measurements.

Tested on: Saccharomyces cerevisiae
Test: protein stability index of tFT-peptide fusion (C-terminal peptide) (PSI (0-1 scale)); higher = more stable (slower turnover)
Settings: temperature: 30 C
Description: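 MPS profiling in S. cerevisiae of the yeast C-terminome library: the last 12 aa of each annotated ORF are fused to the C-terminus of a sfGFP-mCherry timer, after a GGGS linker. Cells are FACS-sorted into 8 mCherry/sfGFP bins and deep-sequenced. PSI runs from 0 (unstable) to 1 (stable); wild type and das1Δ backgrounds, two technical replicates each.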

[1] = genetic background: das1 deletion

Sequence | protein stability index [1] | protein stability index (genetic background: wild type)
FERNYFPYSAVY [CLG1 C-terminal 12 aa] | 0.6077 ± 0.0039 | 0.608 ± 0.018
SLKTFINDVLSF [SLS1 C-terminal 12 aa] | 0.7066 ± 0.0021 | 0.717 ± 0.029
IHYFKSNLSSPS [RAM1 C-terminal 12 aa] | 0.688 ± 0.022 | 0.724 ± 0.028
PMGDIPVHLFKR [ACF4 C-terminal 12 aa] | 0.709 ± 0.013 | 0.729 ± 0.014
LKEASRYILEVY [MET10 C-terminal 12 aa] | 0.28 ± 0.013 | 0.31 ± 0.0096
YVSHKGFITEDL [RPL9A C-terminal 12 aa] | 0.689 ± 0.055 | 0.679 ± 0.035
SGVGAALCALVA [EMI2 C-terminal 12 aa] | 0.583 ± 0.0075 | 0.602 ± 0.025
GLNKNMLKKIIK [YPR084W C-terminal 12 aa] | 0.715 ± 0.032 | 0.668 ± 0.03
KESSTSSEKQIA [THI72 C-terminal 12 aa] | 0.67657 ± 0.00024 | 0.6804 ± 0.0025
STDEKTSENETL [YPR071W C-terminal 12 aa] | 0.6746 ± 0.0056 | 0.656 ± 0.024
DSEIEMLKGRLQ [EPO1 C-terminal 12 aa] | 0.6666 ± 0.002 | 0.694 ± 0.026
RPSTNDPTSCCS [YPT52 C-terminal 12 aa] | 0.697 ± 0.025 | 0.705 ± 0.03
ILRLRLRKATFD [PRM1 C-terminal 12 aa] | 0.706 ± 0.023 | 0.708 ± 0.044
NFQREVIDNSKL [LDH1 C-terminal 12 aa] | 0.697 ± 0.015 | 0.719 ± 0.067
GRGLLGCRIQEL [NAS2 C-terminal 12 aa] | 0.703 ± 0.012 | 0.681 ± 0.032
GCVLGKLGYLKM [RAD33 C-terminal 12 aa] | 0.719 ± 0.024 | 0.619 ± 0.07
EEDIFYRNQVVF [YKR075C C-terminal 12 aa] | 0.738 ± 0.0081 | 0.777 ± 0.059
VKNSPRLLLFFI [YOL160W C-terminal 12 aa] | 0.673 ± 0.041 | 0.53 ± 0.011
FRVVLNAQLNIQ [YOR108C-A C-terminal 12 aa] | 0.69 ± 0.036 | 0.674 ± 0.006
AYECAKHFLMTY [MRS3 C-terminal 12 aa] | 0.689 ± 0.033 | 0.653 ± 0.057
LQVILMSLGAIA [MDM31 C-terminal 12 aa] | 0.446 ± 0.014 | 0.508 ± 0.0098

Sequence | protein stability index [1] | protein stability index (genetic background: wild type)
WAREQQKRQLSL [KAP95 C-terminal 12 aa] | 0.725 ± 0.0096 | 0.729 ± 0.019
EYSWEKPKKLEF [SAM2 C-terminal 12 aa] | 0.7075 ± 0.0037 | 0.698 ± 0.035
FRGKRYHTIKRQ [MSS51 C-terminal 12 aa] | 0.709 ± 0.0045 | 0.643 ± 0.035
SDILKYILLGSN [SNF4 C-terminal 12 aa] | 0.683 ± 0.0085 | 0.6783 ± 0.0061
KSCVSSLRVMAM [YNL276C C-terminal 12 aa] | 0.608 ± 0.013 | 0.597 ± 0.023
FVSSDPGLTQWL [HNT2 C-terminal 12 aa] | 0.745 ± 0.014 | 0.713 ± 0.0078
QASSEKKWYKFW [COX20 C-terminal 12 aa] | 0.755 ± 0.018 | 0.6753 ± 0.0053
ETLEAETVKIDI [POL31 C-terminal 12 aa] | 0.69571 ± 0.00029 | 0.7012 ± 0.0013
VGLDDLKKLVTK [PCF11 C-terminal 12 aa] | 0.713 ± 0.03 | 0.744 ± 0.099
GAGAFAVGALLL [NCW2 C-terminal 12 aa] | 0.7034 ± 0.0019 | 0.687 ± 0.026
LEYLQDTYQVLK [FAR3 C-terminal 12 aa] | 0.702 ± 0.031 | 0.733 ± 0.01
RRLKIQLCCISK [YHR180C-B C-terminal 12 aa] | 0.658 ± 0.019 | 0.6544 ± 0.004
PISPIGNAGSQI [MIN10 C-terminal 12 aa] | 0.696 ± 0.00098 | 0.6629 ± 0.0022
VIFLFLRTIHFL [PGC1 C-terminal 12 aa] | 0.501 ± 0.015 | 0.142 ± 0.0083
TKAVHINLSLDN [ALD2 C-terminal 12 aa] | 0.69 ± 0.0043 | 0.702 ± 0.015
GGPPKVNKDIIS [HAT2 C-terminal 12 aa] | 0.708 ± 0.035 | 0.6995 ± 0.006
SHLFFQLSCSLY [YLL044W C-terminal 12 aa] | 0.685 ± 0.038 | 0.736 ± 0.069
NKNLHGINTNEF [TRE1 C-terminal 12 aa] | 0.7067 ± 0.0039 | 0.6665 ± 0.0019
KVKTKKEEGKER [PXA2 C-terminal 12 aa] | 0.698 ± 0.022 | 0.654 ± 0.0067
MRKHLRVSPFLF [YDL071C C-terminal 12 aa] | 0.711 ± 0.016 | 0.329 ± 0.0068
